This note sets out measurements from the supplement of paper PMC12764529.

Series [1] is described as follows: folding stability dG unfold from chymotrypsin proteolysis; higher = more stable. In outline:
(§1)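 Digests were run with trypsin and chymotrypsin at 11 concentrations in threefold dilutions, plus a no-protease condition, on designed mini-proteins in a PA-tagged cDNA display construct. The mini-proteins were under 80 residues, had no cysteine, and were kept only when AlphaFold2 dimer inter-PAE was above 15. After sequencing, Bayesian fitting of the counts gave K50, from which unfolding free energy was derived against a sequence-predicted unfolded-state K50 and a shared folded-state K50, per protease or combined.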

Series [2] can be described thus: folding stability dG unfold from trypsin proteolysis; higher = more stable. In outline: as §1
The nature of series [3]: folding stability dG unfold (combined trypsin and chymotrypsin); higher = more stable. The essentials: as §1

± gives the half width of the 95% confidence interval.

Take “SAGGSAGGSAMPLEKVIKNLTSSGSVESLKEKLAKEYGVEKVEVTKDPNSDTYSAKVFLKKPSAGGSAGGSA [r18_275_JUSTAS]”: the “folding stability dG unfold” value was -0.0178 ± 0.31 kcal/mol in series [1], -0.147 ± 0.18 kcal/mol in series [2] and 0.131 ± 0.15 kcal/mol in series [3].
On to “SAGGSAGGSAMPPDAKPVRTETDPATGTTTEYILYPDSDTTIRKTHLPDGSVQVEEFSVSKTSAGGSAGGSA [r18_521_JUSTAS]”, for which the “folding stability dG unfold” value was -0.491 ± 0.17 kcal/mol in series [1], -0.743 ± 0.15 kcal/mol in series [2] and -0.491 ± 0.29 kcal/mol in series [3].
Turning to “SAGGSAGGSAMPPLISTTPILGEEPGKRLVREIVTLPDGSLIELTYDEDGNVIESKKYIVGKSAGGSAGGSA [r18_467_JUSTAS]”, the “folding stability dG unfold” value in series [1] was 1.22 ± 0.037 kcal/mol; in series [2], 0.132 ± 0.041 kcal/mol; in series [3], 0.94 ± 0.049 kcal/mol.
On to “SAGGSAGGSAMPTYDNPDSLSIEEVKEKVAKEAKEKYPGKSNITVPVKFSDGTEYTVTIKIESAGGSAGGSA [r18_449_JUSTAS]”, for which the figures for the “folding stability dG unfold” value in series [1], in series [2] and in series [3] were -0.771 ± 0.21 kcal/mol, -0.288 ± 0.05 kcal/mol and -0.405 ± 0.21 kcal/mol, respectively.
In the same order, the values of “SAGGSAGGSAMRELVKRAAKNGNPGQKVMIRPPDKRYFPITVEGNKIEPKDLPPGWEVHVISAGGSAGGSAG [r3_244_TrROS]” are -0.443 ± 0.3 kcal/mol, -0.427 ± 0.39 kcal/mol and -0.37 ± 0.28 kcal/mol.
In the same order, the values of “SAGGSAGGSAMRLEIELENGLKIEIELEVNEDGELKMKIKIEPLPPVPEVVVTKVVKLEEESAGGSAGGSAG [r3_15_TrROS_Hall]” are 1.69 ± 0.12 kcal/mol, 1.72 ± 0.29 kcal/mol and 1.98 ± 0.39 kcal/mol.
In the same order, the values of “SAGGSAGGSAMSEEERRRRAEEERRKKPPVFKITEITVERDEDGNLRVTFRLEDGSTVTIELSAGGSAGGSA [r18_423_TrROS_Hall]” are 3.33 ± 0.088 kcal/mol, 1.89 ± 0.039 kcal/mol and 2.91 ± 0.14 kcal/mol.
On to “SAGGSAGGSAMSPTEAERARPVPVVKTETTVTLDPSGYRVETVTYDGGVTETVVTPLPPELASAGGSAGGSA [r18_192_JUSTAS]”, for which the “folding stability dG unfold” value in series [1] was -0.143 ± 0.11 kcal/mol; in series [2], 0.0994 ± 0.04 kcal/mol; in series [3], 0.0301 ± 0.085 kcal/mol.
For “SAGGSAGGSAMSVTATVPEKPVTLTYIPPNTVTKTVIDPSTGTTTTTEVNLPPGVVPASLLLSAGGSAGGSA [r18_59_JUSTAS]”, in that order: -0.191 ± 0.13 kcal/mol, 0.313 ± 0.05 kcal/mol and 0.14 ± 0.045 kcal/mol.
In the same order, the values of “SAGGSAGGSAMSVVVKYTVLLTDPVTGKTTVVPVTATLPVSDGTAKTIEEIVAEHPNYEILESAGGSAGGSA [r18_267_JUSTAS]” are 1.3 ± 0.026 kcal/mol, 1.81 ± 0.068 kcal/mol and 1.56 ± 0.039 kcal/mol.
In the case of “SAGGSAGGSAMTAREIADELVKEGKEVKVTVRRPGEEKEITVTKEGEPLPPGAEIVKIEEVSAGGSAGGSAG [r3_421_TrROS_Hall]”, the “folding stability dG unfold” value in series [1] was 0.187 ± 0.08 kcal/mol; in series [2], -0.678 ± 0.19 kcal/mol; in series [3], 0.0343 ± 0.14 kcal/mol.
As for “SAGGSAGGSAMTITVEVPPSVPAEEAAERVAERLRAEFPVPDIRVTVETTPDGTVTVTITEASAGGSAGGSA [r18_1_JUSTAS]”, the entries for the “folding stability dG unfold” value in series [1], in series [2] and in series [3] were 0.436 ± 0.09 kcal/mol, -0.291 ± 0.16 kcal/mol and 0.275 ± 0.1 kcal/mol, respectively.
In the same order, the values of “SAGGSAGGSAMTLNVPDAGGKTYTVEVLSYDPVKNTWTLLNPSTSETITITAEEAAKIKAAASAGGSAGGSA [r18_161_JUSTAS]” are 2.01 ± 0.066 kcal/mol, 2.01 ± 0.072 kcal/mol and 2.1 ± 0.11 kcal/mol.
In the same order, the values of “SAGGSAGGSAMTLRVKITLPDGRELELEIEAETEEEALAALKELIKKLFPEVKEVKIEVEPESAGGSAGGSA [r18_434_TrROS_Hall]” are 4.85 ± 0.38 kcal/mol, 3.91 ± 0.3 kcal/mol and 4.84 ± 0.4 kcal/mol.
For “SAGGSAGGSAMTPQVIKVTLYKPATGDVRTVVVLDPVPNTSLDEVAAALPSDYVVAKVEVGSAGGSAGGSAG [r3_80_TrMRF]”, in that order: -0.308 ± 0.33 kcal/mol, 0.166 ± 0.079 kcal/mol and -0.0325 ± 0.14 kcal/mol.
As for “SAGGSAGGSAMTPVTIKVTLTNPATGSTTTKTIYVPEPNPSVEEIKKKLPSDWTVTSITLSSAGGSAGGSAG [r3_80_JUSTAS]”, the “folding stability dG unfold” value in series [1] was 0.828 ± 0.16 kcal/mol; in series [2], 1.23 ± 0.045 kcal/mol; in series [3], 1.07 ± 0.16 kcal/mol.
Consider “SAGGSAGGSAMTTTSTSTYPDSITTTTTTTVDGTYIITTTTFYPATGTTTTTTTTLPPSLTSAGGSAGGSAG [r3_316_JUSTAS]”, for which the “folding stability dG unfold” value in series [1] was found to be 1.987 ± 0.011 kcal/mol; in series [2] it was 2.91 ± 0.093 kcal/mol; in series [3], 2.41 ± 0.048 kcal/mol.
In the same order, the values of “SAGGSAGGSAMTVLVMEIKIELRVNEDGSLELRMEIEIKPVEPITLEELAEKLGLSKEELLSAGGSAGGSAG [r3_338_TrROS_Hall]” are 2.91 ± 0.085 kcal/mol, 3.28 ± 0.12 kcal/mol and 3.03 ± 0.14 kcal/mol.
In the same order, the values of “SAGGSAGGSAMTVRFGKPEELEKAEELAEEIAKAHPGKPIKVTVTKDPNNPDEYTVTITEESAGGSAGGSAG [r3_131_JUSTAS]” are 0.544 ± 0.09 kcal/mol, -0.24 ± 0.16 kcal/mol and 0.289 ± 0.14 kcal/mol.
With “SAGGSAGGSAMTVRIEFEDGSVKEIPAEEFSEDFIKALPKKYKVSEYPEPPLDNNKSNILKSAGGSAGGSAG [r3_69_JUSTAS]”, the “folding stability dG unfold” value in series [1] is 0.697 ± 0.085 kcal/mol; in series [2], -0.0131 ± 0.059 kcal/mol; in series [3], 0.431 ± 0.091 kcal/mol.
For “SAGGSAGGSAMVITKTTASVEEVKEEIKKEYPNANVKITKVSTSADGKTTYKIEIKIPKNNKSAGGSAGGSA [r18_464_JUSTAS]”, in that order: 2.5 ± 0.033 kcal/mol, 0.586 ± 0.067 kcal/mol and 2 ± 0.16 kcal/mol.
For “SAGGSAGGSAMVTIAFPDGTVVEIPASLSEEEVEAEAERLAKERAAGVRPVDVTVESIEPPGSAGGSAGGSA [r18_213_JUSTAS]”, in that order: 1.43 ± 0.062 kcal/mol, 0.356 ± 0.035 kcal/mol and 1.07 ± 0.069 kcal/mol.
“SAGGSAGGSAMVVEVPVEFPDDVKVYSVEEDPELGVLLVKVKFPDREVLAVIPGDKLFIADASAGGSAGGSA [r18_212_TrMRF]”: the entries for the “folding stability dG unfold” value in series [1], in series [2] and in series [3] were 0.325 ± 0.089 kcal/mol, 0.43 ± 0.016 kcal/mol and 0.422 ± 0.052 kcal/mol, respectively.
In the case of “SAGGSAGGSAMVVPRTYRVPPGLTVEEVADYLRAKDPNVIDATAERRPDGYLLVTVLVRLDSAGGSAGGSAG [r3_371_TrMRF]”, the “folding stability dG unfold” value worked out at 2.07 ± 0.079 kcal/mol in series [1], 1.21 ± 0.068 kcal/mol in series [2] and 1.69 ± 0.17 kcal/mol in series [3].
For “SAGGSAGGSAMWVIRIWFPNGNKRTIPIPPNEKLTAEEILDEFRIPNGREMRILRVEIWPYSAGGSAGGSAG [r3_465_TrROS]”, in that order: 2.66 ± 0.034 kcal/mol, 1.967 ± 0.011 kcal/mol and 2.43 ± 0.042 kcal/mol.
For “SAGGSAGGSAMYKVTIEIPETGKIYTFTHPGTAEEALAAALPEIGVSKEKIKKITVTPTEESAGGSAGGSAG [r3_79_JUSTAS]”, in that order: 1.36 ± 0.11 kcal/mol, 0.312 ± 0.079 kcal/mol and 0.994 ± 0.11 kcal/mol.
